Results from paper PMC5318909, “Nucleobindin 1 binds to multiple types of pre-fibrillar amyloid and inhibits fibrillization” (Scientific Reports, 2017).

Tests used:
Aβ42 synthetic peptide = Aβ42 synthetic peptide (UniProt P05067 672-713); assay: cell-based or functional assay
[1] = biological target: the molecule itself; assay: atomic force microscopy; mtNUCB1 alone plated on freshly cleaved mica, imaged in air in tapping mode; volume analysis of particles

B1: Ca2+-free mutant variant of soluble nucleobindin 1 (mtNUCB1) (natural protein, human, UniProt Q02818 31-461, looked up)
chain: RGAPNKEETPATESPDTGLYYHRYLQEVIDVLETDGHFREKLQAANAEDIKSGKLSRELDFVSHHVRTKLDELKRQEVSRLRMLLKAKMDAEQDPNVQVDHLNLLKQFEHLDPQNQHTFEARDLELLIQTATRDLAQYDAAHHEEFKRYEMLKEHERRRYLESLGEEQRKEAERKLEEQQRRHREHPKVNVPGSQAQLKEVWEELDGLDPNRFNPKTFFILHKINSDGVLDEQALEALFTKELEKVYDPKNEEDDMREMEEERLRMREHVMKNVKTNQDRLVTLEAFLASTQRKEFGDTGEGWETVEMHPAYTEEELRRFEEELAAREAELNAKAQRLSQETEALGRSQGRLEAQKRELQQAVLHMEQRKQQQQQQQGHKAPAAHPEGQLKFHPDTDDVPVPAPAGDQKEVDTSEKKLLERLPEVEVPQHL
notes: His tag cleaved with PreScission protease; also called CLABP; source: E. coli BL21 (DE3), purified (Ni-NTA, Superdex200 SEC); not shown: His6, N-terminal, cleaved
- MTT viability of PC12 cells treated for 24 h with 100 nM Aβ42 and increasing doses of mtNUCB1: IC50 of protection (Aβ42 synthetic peptide): 1.4 µM
- stoichiometry N [1]: 2
